Source: patent publication US20240075137A1 (COMPUGEN, published 2024)

B1: human TIGIT on cells (receptor)
chain: MMTGTIETTGNISAEKGGSIILQCHLSSTTAQVTQVNWEQQDQLLAICNADLGWHISPSFKDRVAPGPGLGLTLQSLTVNDTGEYFCIYHTYPDGTYTGRIFLEVLESSVAEHGARFQIP
notes: also called Expi293 human TIGIT over-expressing cells

How the values were obtained:
[1] = biological target: T1, human PVR-h1Fc (Sino Biological #10109-H20H) (human, UniProt P15151 21-343); experiment: FACS titration on Expi293 human TIGIT over-expressing cells (gMFI OE:Parental); ± 95% CI; 'Fit: Fair'
T1 construct: bought; also called hPVR-hFc; Sino PVR-Fc
T1 sequence (looked up): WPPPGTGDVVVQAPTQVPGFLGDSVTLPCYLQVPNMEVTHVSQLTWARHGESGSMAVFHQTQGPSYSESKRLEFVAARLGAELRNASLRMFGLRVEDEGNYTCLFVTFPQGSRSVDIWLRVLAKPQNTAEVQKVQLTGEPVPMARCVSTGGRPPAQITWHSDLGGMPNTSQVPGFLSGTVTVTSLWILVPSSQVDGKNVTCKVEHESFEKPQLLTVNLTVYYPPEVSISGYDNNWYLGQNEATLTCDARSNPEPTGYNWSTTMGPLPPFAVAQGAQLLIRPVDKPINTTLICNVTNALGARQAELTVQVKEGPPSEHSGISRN

human TIGIT on cells [2] = biological target: B1; experiment: FACS blocking: Expi293 human TIGIT cells pre-incubated with mAb, then human PVR-m2aFc; lower gMFI = more blocking
Cyno TIGIT-His [3] = biological target: T2, Cyno TIGIT-His; experiment: SPR (ProteOn), mAb captured, cyno TIGIT monomer injected
T2 construct: also called cyno TIGIT monomer (prepared in-house); C-terminal HIS-tagged cyno TIGIT ECD recombinant protein

human TIGIT on cells [4] = biological target: B1; experiment: FACS KD on Expi293 human TIGIT over-expressing cells; ± 95% CI of the fit
[5] = biological target: T3, human TIGIT ECD with C-terminal polyhistidine tag (human, UniProt Q495A1 22-141); experiment: SPR (ProteOn), mAb captured, human TIGIT injected
T3 construct: in-house or Sino Biological; also called hTIGIT-HIS; human TIGIT-HIS
T3 sequence: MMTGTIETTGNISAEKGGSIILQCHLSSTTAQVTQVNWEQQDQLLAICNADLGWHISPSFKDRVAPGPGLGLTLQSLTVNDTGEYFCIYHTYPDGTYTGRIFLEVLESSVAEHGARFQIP

human TIGIT on cells [6] = biological target: B1; experiment: FACS blocking of human PVR-m2aFc binding to human TIGIT OE Expi293 cells; binding site concentration; n=2
human TIGIT on cells [7] = biological target: B1; experiment: FACS titration of AF647-labelled mAb on human effector memory CD8+ T cells, Donor 334
cyno TIGIT on cells [8] = biological target: T4, cyno TIGIT on cells (cynomolgus macaque); experiment: FACS titration on cyno TIGIT OE Expi293 cells, binding site concentration; ± 95% CI; 'Fit: Good'
T4 construct: whole, on cells; also called Expi293 cyno TIGIT over-expressing cells

cyno TIGIT on cells [9] = biological target: T4, cyno TIGIT on cells; experiment: FACS titration of AF647-labelled mAb on cyno effector memory CD8+ T cells, Cyno Donor 1; isotype gMFI subtracted
human TIGIT on cells [10] = biological target: B1; experiment: FACS titration of AF647-labelled mAb on human effector memory CD8+ T cells, Donor 322
Mouse TIGIT-His = biological target: T5, Mouse TIGIT-His (mouse, UniProt P86176); experiment: SPR (ProteOn), Mouse TIGIT-His
T5 construct: also called mouse TIGIT monomer (prepared in-house)
T5 sequence (soluble monomer with His tag, looked up): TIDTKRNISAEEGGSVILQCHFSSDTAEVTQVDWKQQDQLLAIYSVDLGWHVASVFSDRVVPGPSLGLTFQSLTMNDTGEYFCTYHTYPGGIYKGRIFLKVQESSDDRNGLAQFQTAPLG

[11] = biological target: T3, human TIGIT ECD with C-terminal …; experiment: KinExA equilibrium, His-tagged human TIGIT, n = 2
[12] = biological target: T3, human TIGIT ECD with C-terminal …; experiment: SPR (ProteOn), Human TIGIT-His
[13] = biological target: T3, human TIGIT ECD with C-terminal …; experiment: KinExA equilibrium, His-tagged human TIGIT, n = 1
cyno TIGIT on cells [14] = biological target: T4, cyno TIGIT on cells; experiment: FACS titration of AF647-labelled mAb on cyno effector memory CD8+ T cells, Cyno Donor 3; isotype gMFI subtracted
human TIGIT on cells [15] = biological target: B1; experiment: FACS titration of AF647-labelled mAb on human effector memory CD8+ T cells, Donor 321
human TIGIT on cells [16] = biological target: B1; experiment: FACS blocking of human PVR-m2aFc binding to human TIGIT OE Expi293 cells; binding site concentration; n=1
human TIGIT on cells [17] = biological target: B1; experiment: FACS titration on human TIGIT OE Expi293 cells, binding site concentration; ± 95% CI; 'Fit: Good/Excellent'
Cyno TIGIT-His [18] = biological target: T2, Cyno TIGIT-His; experiment: SPR (ProteOn), Cyno TIGIT-His
mouse TIGIT on cells = biological target: T6, mouse TIGIT on cells (mouse, UniProt P86176 29-249); experiment: FACS titration of AF647-labelled mAb on mouse CD4+CD25+Foxp3+ Tregs from Renca tumors; no unit beside the value, nM taken from the axis (binding site)
T6 construct: whole, on cells; also called mouse TIGIT over-expressing HEK cells; mouse Tregs
T6 sequence (looked up): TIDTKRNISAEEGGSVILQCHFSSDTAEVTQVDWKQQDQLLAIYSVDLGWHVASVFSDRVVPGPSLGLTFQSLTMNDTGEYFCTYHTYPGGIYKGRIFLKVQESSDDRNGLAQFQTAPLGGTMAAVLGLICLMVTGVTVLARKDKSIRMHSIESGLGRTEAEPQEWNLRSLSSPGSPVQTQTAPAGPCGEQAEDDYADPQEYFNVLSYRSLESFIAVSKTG

Cyno TIGIT-His [19] = biological target: T2, Cyno TIGIT-His; experiment: SPR (ProteOn), mAb captured, cyno TIGIT monomer injected; kd of this row held constant
cyno TIGIT on cells [20] = biological target: T4, cyno TIGIT on cells; experiment: FACS KD on Expi293 cyno TIGIT over-expressing cells; ± 95% CI of the fit

T2 sequence (ECD with C-terminal His tag, as listed by the source): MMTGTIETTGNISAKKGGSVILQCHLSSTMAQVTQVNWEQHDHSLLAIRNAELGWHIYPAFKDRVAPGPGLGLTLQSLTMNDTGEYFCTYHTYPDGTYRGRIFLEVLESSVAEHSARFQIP

Binder B1 has a Kd [1] of 10 nM.

B2: CPA.9.059 hIgG4 (antibody, V domains shown)
VH: EVQLVETGGGLIQPGGSLRLSCAASGFTVSSNYMSWVRQAPGKGLEWVSVIYSGGSTYYADSVKGRFTISRDNSKNTLYLQMNSLRAEDTAVYYCARGARYSYGQYPYWGQGTLVTVSS
VL: DIQLTQSPSFLSASVGDRVTITCRASHDISSLFSWYQQKPGKAPKLLIYAASTLQTGVPSRFSGSASGTEFTLTISSLQPEDFATYYCLQLDSFPTWTFGQGTKVEIKR
notes: phage-derived anti-TIGIT, human IgG4; also called CPA.9.059-H4
B2 was tested, and the “gMFI of bound PVR-m2aFc at 266 pM mAb” value (human TIGIT on cells [2]) was 509, the “gMFI of bound PVR-m2aFc at 1.3 nM mAb” value (human TIGIT on cells [2]) was 262 and the “gMFI of bound PVR-m2aFc at 6.7 nM mAb” value (human TIGIT on cells [2]) was 209. The binding result (Cyno TIGIT-His [3]) was “binds”, the Kd (human TIGIT on cells [4]) was 0.29 nM and the Kd [5] was 0.0213 nM.

B3: CPA.9.086.H4(S241P) (antibody, human IgG4 S228P, lambda, V domains shown)
VH: EVQLVETGGGLIQPGRSLRLSCAASGFTFSSYAMHWVRQAPGKGLEWVAVISYAGEVKYYADSVKGRFTISRDNSKNTLYLQMNSLRAEDTAVYYCARDPLPLHYYGMDVWGQGTTVTVSS
VL: QSALTQPRSASGNPGQRVTISCSGSSSNMGRRPVNWYQQIPGTAPKLLIYSQNQRPSGVPDRFSGSQSGTSASLTISGLQSEDEAEYFCAVWDDIGRVLQLGGGTQLAVLG
Work on B3 yielded an IC50 (human TIGIT on cells [6]) of 0.18 nM, a Kd (human TIGIT on cells [7]) of 0.13 nM and a Kd (cyno TIGIT on cells [8]) of 0.3 nM. The Kd (cyno TIGIT on cells [9]) was 0.43 nM, the Kd (human TIGIT on cells [10]) was 0.11 nM and the Kd (Mouse TIGIT-His) was 0.663 nM. It also gave a Kd [11] of 0.000665 nM, a Kd [12] of 0.0023 nM and a Kd [13] of 0.000553 nM. The Kd (cyno TIGIT on cells [14]) was 0.98 nM, the Kd (human TIGIT on cells [15]) was 0.09 nM and the IC50 (human TIGIT on cells [16]) was 0.36 nM. The Kd (human TIGIT on cells [17]) was 0.35 nM and the binding result (Cyno TIGIT-His [18]) was “binds”.

B4: CPA.9.083 reformatted as mouse IgG1 (antibody, V domains shown)
VH: EVQLVETGGGLIQPGRSLRLSCAASGFTFSSYAMHWVRQAPGKGLEWVAVISYDGTPVYYADSVKGRFTISRDNSKNTLYLQMNSLRAEDTAVYYCARDPLPLHYYGMDVWGQGTTVTVSS
VL: QSALTQPRSASGNPGQRVTISCSGSSSNMGRRPVNWYQQIPGTAPKLLIYSQNQRPSGVPDRFSGSQSGTSASLTISGLQSEDEAEYFCAVWDGDRRSLQLGGGTQLAVLG
notes: also called CPA.9.083 mIgG1
In the case of B4, the Kd (mouse TIGIT on cells) is reported as 0.4 nM.

B5: CPA.9.086 reformatted as mouse IgG1 (antibody, V domains shown)
VH: EVQLVETGGGLIQPGRSLRLSCAASGFTFSSYAMHWVRQAPGKGLEWVAVISYAGEVKYYADSVKGRFTISRDNSKNTLYLQMNSLRAEDTAVYYCARDPLPLHYYGMDVWGQGTTVTVSS
VL: QSALTQPRSASGNPGQRVTISCSGSSSNMGRRPVNWYQQIPGTAPKLLIYSQNQRPSGVPDRFSGSQSGTSASLTISGLQSEDEAEYFCAVWDDIGRVLQLGGGTQLAVLG
notes: also called CPA.9.086 mIgG1
B5 gave a Kd (mouse TIGIT on cells) of 0.68 nM.

B6: CHA.9.543 (antibody, V domains shown)
VH: EVQLQQSGPELVKPGASMKISCKASGYSFTGYTMNWVRQSHGKNLEWLGLIFPYNGGTSYNQNFKGKATLTVDTSSSTAYMELLSLTSVDSAVYYCARGVRFALDYWGQGTSVSVSS
VL: DVVMTQTPLSLPVSFGDQVSISCRSSQSLANSYGNTYLSWYLHKPGQSPQLLIYEISNRFSGVPDRFSGSGSGTDFTLNISTIKPEDLGMYYCLQGTHQPWTFGGGTKLEIKR
Binder B6 has a Kd (Cyno TIGIT-His [19]) of 0.00155 nM, a Kd (human TIGIT on cells [4]) of 10.2 nM and a Kd [5] of 0.0231 nM. It also gave a Kd (cyno TIGIT on cells [20]) of 17.2 nM.
